Data taken from publication PMC5658042 (Methods (San Diego, Calif.), 2017).

Biological target: Drosophila melanogaster Dicer-2 (dmDcr-2), OSF tag removed (Drosophila melanogaster, UniProt A1ZAW0 1-1722)
Experiment: cross-linking

Drosophila melanogaster Dicer-2 (dmDcr-2), OSF tag removed, sequence (A1ZAW0 whole entry): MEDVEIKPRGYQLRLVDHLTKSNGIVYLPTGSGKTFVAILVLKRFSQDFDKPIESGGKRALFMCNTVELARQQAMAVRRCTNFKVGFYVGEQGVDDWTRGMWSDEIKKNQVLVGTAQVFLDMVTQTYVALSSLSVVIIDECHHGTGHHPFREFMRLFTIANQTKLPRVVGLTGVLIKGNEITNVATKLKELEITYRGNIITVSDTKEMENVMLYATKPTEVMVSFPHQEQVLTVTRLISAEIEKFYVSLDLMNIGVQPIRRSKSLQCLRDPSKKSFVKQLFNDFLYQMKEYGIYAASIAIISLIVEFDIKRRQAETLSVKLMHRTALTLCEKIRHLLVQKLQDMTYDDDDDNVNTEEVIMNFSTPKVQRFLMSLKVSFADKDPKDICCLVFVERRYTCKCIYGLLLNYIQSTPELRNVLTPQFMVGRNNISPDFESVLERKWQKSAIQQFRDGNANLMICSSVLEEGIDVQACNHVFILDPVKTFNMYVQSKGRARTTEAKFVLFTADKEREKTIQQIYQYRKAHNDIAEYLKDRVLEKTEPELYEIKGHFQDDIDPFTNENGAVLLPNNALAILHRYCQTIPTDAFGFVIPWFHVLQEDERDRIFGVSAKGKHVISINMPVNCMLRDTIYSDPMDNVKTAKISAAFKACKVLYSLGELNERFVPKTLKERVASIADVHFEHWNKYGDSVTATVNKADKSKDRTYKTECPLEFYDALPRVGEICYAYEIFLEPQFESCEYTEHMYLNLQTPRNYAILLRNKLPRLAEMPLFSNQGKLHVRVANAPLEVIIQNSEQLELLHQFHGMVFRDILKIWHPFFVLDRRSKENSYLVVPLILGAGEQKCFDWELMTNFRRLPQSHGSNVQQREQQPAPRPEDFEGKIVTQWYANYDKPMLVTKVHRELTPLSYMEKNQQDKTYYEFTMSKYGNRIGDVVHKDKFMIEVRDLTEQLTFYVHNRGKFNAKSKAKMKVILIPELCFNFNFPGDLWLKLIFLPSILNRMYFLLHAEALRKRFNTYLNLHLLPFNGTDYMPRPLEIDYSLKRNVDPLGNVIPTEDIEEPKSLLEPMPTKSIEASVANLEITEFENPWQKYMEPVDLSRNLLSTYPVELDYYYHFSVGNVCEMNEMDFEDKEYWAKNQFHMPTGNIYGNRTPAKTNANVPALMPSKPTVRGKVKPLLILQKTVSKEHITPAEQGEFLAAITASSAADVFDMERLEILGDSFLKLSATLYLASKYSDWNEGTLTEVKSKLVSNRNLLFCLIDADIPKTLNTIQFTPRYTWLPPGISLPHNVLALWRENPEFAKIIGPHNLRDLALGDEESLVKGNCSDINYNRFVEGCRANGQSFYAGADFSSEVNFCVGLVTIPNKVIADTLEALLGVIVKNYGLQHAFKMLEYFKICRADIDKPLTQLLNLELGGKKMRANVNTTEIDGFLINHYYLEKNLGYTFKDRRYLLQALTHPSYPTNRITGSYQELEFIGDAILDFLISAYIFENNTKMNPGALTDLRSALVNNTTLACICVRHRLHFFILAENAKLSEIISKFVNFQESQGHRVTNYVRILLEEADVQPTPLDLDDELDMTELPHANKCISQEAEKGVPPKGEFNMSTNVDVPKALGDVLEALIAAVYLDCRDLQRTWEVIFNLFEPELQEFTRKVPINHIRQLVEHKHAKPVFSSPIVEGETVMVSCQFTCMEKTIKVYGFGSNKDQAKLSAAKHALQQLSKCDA

B1: Loquacious-PD (Loqs-PD), OSF tag removed (natural protein, Drosophila melanogaster, UniProt Q9VJY9-4 1-359, looked up)
chain: MDQENFHGSSLPQQLQNLHIQPQQASPNPVQTGFAPRRHYNNLVGLGNGNAVSGSPVKGAPLGQRHVKLKKEKISAQVAQLSQPGQLQLSDVGDPALAGGSGLQGGVGLMGVILPSDEALKFVSETDANGLAMKTPVSILQELLSRRGITPGYELVQIEGAIHEPTFRFRVSFKDKDTPFTAMGAGRSKKEAKHAAARALIDKLIGAQLPESPSSSAGPSVTGLTVAGSGGDGNANATGGGDASDKTVGNPIGWLQEMCMQRRWPPPSYETETEVGLPHERLFTIACSILNYREMGKGKSKKIAKRLAAHRMWMRLQETPIDSGKISDSICGELEGEVSIIQDIDRYEQVSKDFEFIKI
modifications: mono-phosphorylated (intact-mass ESI/MS shows a phospho and a dephosphorylated species); putative site assigned to the motif 213-SPSSS-217
- stoichiometry N: 1
